# Residue numbers refer to the chain shown, from its start.
# T1: human FcγRIIb extracellular domain with C-terminal His-tag (human, UniProt P31994 43-217)
# T1 construct: Expressed in FreeStyle 293 cells and purified; also called humanFcgRIIb; not shown: C-terminal His-tag
# T1 sequence: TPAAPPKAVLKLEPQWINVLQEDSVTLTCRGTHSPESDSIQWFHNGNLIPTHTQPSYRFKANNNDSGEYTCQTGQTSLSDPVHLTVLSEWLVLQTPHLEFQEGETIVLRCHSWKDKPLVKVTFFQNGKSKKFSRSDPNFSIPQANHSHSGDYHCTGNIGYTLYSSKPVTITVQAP
# T2: cynomolgus monkey FcγRIIa2 extracellular domain with C-terminal His-tag (cynomolgus monkey)
# T2 construct: Expressed in FreeStyle 293 cells and purified; also called cyno FcγRIIa2; cynoFcgRIIa2; not shown: C-terminal His-tag
# T2 chain: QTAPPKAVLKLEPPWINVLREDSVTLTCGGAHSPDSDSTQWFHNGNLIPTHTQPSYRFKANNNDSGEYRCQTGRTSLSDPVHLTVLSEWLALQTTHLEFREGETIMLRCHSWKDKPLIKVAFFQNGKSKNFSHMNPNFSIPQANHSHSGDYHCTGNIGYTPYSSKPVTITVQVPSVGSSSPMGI
# T3: human FcγRIIaR extracellular domain with C-terminal His-tag (human, UniProt P12318 34-217)
# T3 construct: Expressed in FreeStyle 293 cells and purified; also called human FcγRIIa (type R); FcgRIIaR; not shown: C-terminal His-tag
# T3 chain: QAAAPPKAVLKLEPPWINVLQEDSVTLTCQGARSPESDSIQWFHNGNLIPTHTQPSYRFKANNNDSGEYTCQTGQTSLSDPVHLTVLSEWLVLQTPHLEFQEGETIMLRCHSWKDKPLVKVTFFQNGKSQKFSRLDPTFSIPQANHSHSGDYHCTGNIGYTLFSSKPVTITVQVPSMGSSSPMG
# T4: cynomolgus monkey FcγRIIa3 extracellular domain with C-terminal His-tag (cynomolgus monkey)
# T4 construct: Expressed in FreeStyle 293 cells and purified; also called cyno FcγRIIa3; cynoFcgRIIa3; not shown: C-terminal His-tag
# T4 chain: T2 chain with K127I, N130K, H133P, Q142R
# T5: cynomolgus monkey FcγRIIIaS extracellular domain with C-terminal His-tag (cynomolgus monkey, UniProt Q8SPW2 21-206 at identity 1.00))
# T5 construct: Expressed in FreeStyle 293 cells and purified; also called cyno FcγRIIIaS; cynoFcγRIIIaS; not shown: C-terminal His-tag
# T5 chain: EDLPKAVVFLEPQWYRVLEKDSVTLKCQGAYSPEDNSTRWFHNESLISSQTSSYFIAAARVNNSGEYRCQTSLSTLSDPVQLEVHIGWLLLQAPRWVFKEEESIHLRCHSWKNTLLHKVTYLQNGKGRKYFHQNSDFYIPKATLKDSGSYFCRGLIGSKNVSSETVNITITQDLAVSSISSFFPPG
# T6: cynomolgus monkey FcγRIIb extracellular domain with C-terminal His-tag (cynomolgus monkey)
# T6 construct: Expressed in FreeStyle 293 cells and purified; also called cyno FcγRIIb; cynoFcγRIIb; not shown: C-terminal His-tag
# T6 chain: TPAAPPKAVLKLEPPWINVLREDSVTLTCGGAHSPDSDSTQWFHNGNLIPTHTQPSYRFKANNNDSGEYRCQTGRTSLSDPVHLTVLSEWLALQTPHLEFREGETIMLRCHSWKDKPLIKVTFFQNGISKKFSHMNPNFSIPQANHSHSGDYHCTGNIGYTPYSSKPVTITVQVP
# B1: M103205H795-MY176 / M103202L889-SK1 (antibody, human IgG1, kappa)
# heavy: QVTLKESGPVLVKPTETLTLTCTVSGIDLSHDDISWVRQAPGKGLEWVGIISYAGSTYYASWAKGRLTISKDTSKNQVVLTMTNMDPVDTATYYCARGVPAYSHGGDLWGQGTLVTVSSASTKGPSVFPLAPSSKSTSGGTAALGCLVKDYFPEPVTVSWNSGALTSGVHTFPAVLQSSGLYSLSSVVTVPSSSLGTQTYICNVNHKPSNTKVDKKVEPKSCDKTHTCPPCPAPELLNGPSVFLFPPKPKDTLMISRTPEVTCVVVDVSEEDPEVKFNWYVDGVEVHNAKTKPREEQYNSTYRVVSVLTVLHQDWLNGKEYKCKVSNKALPAPIEKTISKAKGQPREPQVYTLPPSREEMTKNQVSLTCLVKGFYPSDIAVEWESNGQPENNYKTTPLVLDSDGSFFLYSKLTVDKSRWQQGNVFSCSVMHEALHNHYTQKSLSLSP
# light: DIVMTQSPATLSLSPGERATLSCTSSQSVYHANWLSWFQQKPGQPPKLLIYWASTLAYGVPSRFSGSGSGTDFTLTISSLQPEDAATYYCAGGYGGGRYAFGQGTKVEIKRTVAAPSVFIFPPSDEQLKSGTASVVCLLNNFYPREAKVQWKVDNALQSGNSQESVTEQDSKDSTYSLSSTLTLSKADYEKHKVYACEVTHQGLSSPVTKSFNRGEC
# notes: Position 396 variant derived from MY052, expressed with M103202L889-SK1 as light chain
# B2: M103205H795-MY177 / M103202L889-SK1 (antibody, human IgG1, kappa)
# heavy: B1 heavy with L398N
# light: B1 light
# notes: as for B1
# B3: M103205H795-MY180 / M103202L889-SK1 (antibody, human IgG1, kappa)
# heavy: B1 heavy with L398S
# light: B1 light
# notes: as for B1
# B4: M103205H795-MY178 / M103202L889-SK1 (antibody, human IgG1, kappa)
# heavy: B1 heavy with L398Q
# light: B1 light
# notes: as for B1
# B5: M103205H795-MY182 / M103202L889-SK1 (antibody, human IgG1, kappa)
# heavy: B1 heavy with L398V
# light: B1 light
# notes: as for B1
# B6: M103205H795-MY184 / M103202L889-SK1 (antibody, human IgG1, kappa)
# heavy: B1 heavy with L398Y
# light: B1 light
# notes: as for B1
# B7: M103205H795-MY179 / M103202L889-SK1 (antibody, human IgG1, kappa)
# heavy: B1 heavy with L398R
# light: B1 light
# notes: as for B1
# B8: M103205H795-MY181 / M103202L889-SK1 (antibody, human IgG1, kappa)
# heavy: B1 heavy with L398T
# light: B1 light
# notes: as for B1
# B9: M103205H795-MY183 / M103202L889-SK1 (antibody, human IgG1, kappa)
# heavy: B1 heavy with L398W
# light: B1 light
# notes: as for B1
# Molecular target: T1, human FcγRIIb extracellular domain with …
# Assay: SPR (Biacore), antibody captured on chip, FcgR extracellular domain as analyte, 25 C
row,Kd,Binder
1,7 µM,B1
2,11 µM,B2
3,19 µM,B3
4,13 µM,B4
5,1.2 µM,B5
6,1.1 µM,B6
7,12 µM,B7
8,14 µM,B8
9,1.1 µM,B9

# Molecular target: T2, cynomolgus monkey FcγRIIa2 …
# Assay: SPR (Biacore); KD of SG1 divided by KD of the variant for this FcgR;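 also: relative to parent M103205H795-SG1 carrying the SG1 human heavy chain constant region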
row,KD fold (SG1 = 1),Binder
1,3.6 fold,B1
2,2.8 fold,B2
3,1.9 fold,B3
4,2.4 fold,B4
5,2.3 fold,B5
6,2.6 fold,B6
7,2.5 fold,B7
8,2.2 fold,B8
9,2.5 fold,B9

# Molecular target: T3, human FcγRIIaR extracellular domain …
# Assay: as above
row,KD fold (SG1 = 1),Binder
1,0.8 fold,B1
2,0.6 fold,B2
3,0.4 fold,B3
4,0.5 fold,B4
5,0.5 fold,B5
6,0.6 fold,B6
7,0.5 fold,B7
8,0.4 fold,B8
9,0.5 fold,B9

# Molecular target: T7, human FcγRIIIaV extracellular domain with C-terminal His-tag (human, UniProt P08637 17-208)
# T7 construct: Expressed in FreeStyle 293 cells and purified; also called FcgRIIIaV; not shown: C-terminal His-tag
# Assay: as above
# T7 sequence (P08637 17-208 F176V): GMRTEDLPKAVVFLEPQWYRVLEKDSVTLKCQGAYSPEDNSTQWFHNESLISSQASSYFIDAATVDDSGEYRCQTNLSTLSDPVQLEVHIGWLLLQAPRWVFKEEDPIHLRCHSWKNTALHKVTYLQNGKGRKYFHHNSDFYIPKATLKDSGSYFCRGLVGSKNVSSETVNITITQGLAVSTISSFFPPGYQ
row,KD fold (SG1 = 1),Binder
1,0.13 fold,B1
2,0.13 fold,B2
3,0.14 fold,B3
4,0.18 fold,B4
5,0.12 fold,B5
6,0.12 fold,B6
7,0.14 fold,B7
8,0.11 fold,B8
9,0.11 fold,B9

# Molecular target: T4, cynomolgus monkey FcγRIIa3 …
# Assay: as above
row,KD fold (SG1 = 1),Binder
1,2.8 fold,B1
2,2.1 fold,B2
3,1.4 fold,B3
4,2 fold,B4
5,2.2 fold,B5
6,2 fold,B6
7,2.2 fold,B7
8,1.8 fold,B8
9,2 fold,B9

# Molecular target: T1, human FcγRIIb extracellular domain with …
# Assay: as above
row,KD fold (SG1 = 1),Binder
1,6.6 fold,B1
2,4.2 fold,B2
3,2.4 fold,B3
4,3.5 fold,B4
5,3.8 fold,B5
6,4.2 fold,B6
7,3.8 fold,B7
8,3.3 fold,B8
9,4.2 fold,B9

# Molecular target: T5, cynomolgus monkey FcγRIIIaS …
# Assay: as above
row,KD fold (SG1 = 1),Binder
1,0.16 fold,B1
2,0.12 fold,B2
3,0.12 fold,B3
4,0.12 fold,B4
5,0.1 fold,B5
6,0.11 fold,B6
7,0.13 fold,B7
8,0.09 fold,B8
9,0.1 fold,B9

# Molecular target: T6, cynomolgus monkey FcγRIIb extracellular …
# Assay: as above
row,KD fold (SG1 = 1),Binder
1,3 fold,B1
2,2.2 fold,B2
3,1.4 fold,B3
4,1.9 fold,B4
5,1.9 fold,B5
6,2 fold,B6
7,1.8 fold,B7
8,1.8 fold,B8
9,1.9 fold,B9

# Reference: patent publication US20200317768A1 (published 2020)
